Source: the supplement of paper PMC9170038

System: MS2 coat protein
Test: apparent KD of MS2 coat protein; designed switch direction (-1 OFF switch, 1 ON switch): -1; higher = weaker reporter binding
How it was run: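 The reported apparent KD is a per-design median over clusters, from curve fits of normalised cluster fluorescence. Protein titrations used SNAP-549-labelled MS2 coat protein, doubled from 0.7 or 1.5 nM to 3 µM, in Tris-HCl pH 7.5 buffer with KCl, MgCl2, BSA, DTT, tRNA and Tween-20, with no input, 200 uM small-molecule ligand, or an oligonucleotide input. The RNA switches were transcribed on Illumina chips by stalled E. coli RNA polymerase.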

[1] = Eterna round: R95, input ligand: microRNA oligo, concentration not stated
[2] = Eterna round: R95, input ligand: FMN 200 uM
[3] = Eterna round: R95, input ligand: none
[4] = input ligand: microRNA oligo, concentration not stated

AAUUAGCAAGCAAGAUCCCACAUGAGGAUCACCCAUGUGCUCGUCUUAUAAGGUACUGUGACGAAAGUCACGGUACC [Mat - Sensor, turn-off var - Eli Mod - D50] (Eterna round: R97, puzzle: Sensor, turn-off variant 1)
apparent KD of MS2 coat protein (input ligand: FMN 200 uM): 50.2 nM | apparent KD of MS2 coat protein (input ligand: none): 54.8 nM

AAUUAGCAAGCGAGAUCCCACAUGAGGAUCACCCAUGUGCUCGUCUUAUAAGGUACUGUGACGAUAGUCACGGUACC [Mat - Sensor, turn-off var - Eli Mod - D20] (Eterna round: R97, puzzle: Sensor, turn-off variant 1)
apparent KD of MS2 coat protein (input ligand: FMN 200 uM): 15.6 nM | apparent KD of MS2 coat protein (input ligand: none): 13.5 nM

AAUUAGCAAGCGAGAUCCCACAUGAGGAUCACCCAUGUGCUCGUCUUAUAUAAGGUACUGUACGAAAGUACGGUACC [Mat - Sensor, turn-off var - Eli Mod - D31] (Eterna round: R97, puzzle: Sensor, turn-off variant 1)
apparent KD of MS2 coat protein (input ligand: FMN 200 uM): 16.4 nM | apparent KD of MS2 coat protein (input ligand: none): 16.4 nM

AAUUCACAUGAGGAUCACCCAUGUCAGGAUAUGGUUUCACGUGUUUCUGUGCUUGAGGCCAGAAGGGACAGCUA (puzzle: Exclusion 1)
apparent KD of MS2 coat protein [1]: 50.3 nM

AAUUCACAUGAGGAUCACCCAUGUGAGGAUAUGGAUUCGCUGGCCGUAGCCAGUGGAUCCAGAAGGCGCGUGAU [JL-ex1-4.27] (Eterna round: R97, puzzle: Exclusion 1)
apparent KD of MS2 coat protein (input ligand: FMN 200 uM): 60.5 nM | apparent KD of MS2 coat protein (input ligand: none): 46.8 nM

AAUUGGUUAGGAUAUCGGGAAUAUCACAUGAGGAUCACCCAUGUGACCUUUAUGGUGUCAUGAGAAGGGACGCGGA [Eternabot (L1) Solution 11] (Eterna round: R97, puzzle: Exclusion 5)
apparent KD of MS2 coat protein (input ligand: FMN 200 uM): 27.9 nM | apparent KD of MS2 coat protein (input ligand: none): 24.5 nM

AAUUUAACAUAGGAUAUCGAAUUUAUCAUUUAACGAGAAGGAUGAACAUGAGGAUCACCCAUGUGGUAUCAUGG [Mat - Exclusion 6 - JL Mod - D2] (puzzle: Exclusion 6)
apparent KD of MS2 coat protein [2]: 155 nM | apparent KD of MS2 coat protein [1]: 373 nM | apparent KD of MS2 coat protein [3]: 180 nM

AAUUUAACAUAGGAUAUCGAAUUUAUUAUUUAACGAGAAGGAUGAACAUGAGGAUCACCCAUGUGGUAUCAUGG [Mat - Exclusion 6 - JL Mod - D22] (puzzle: Exclusion 6)
apparent KD of MS2 coat protein [2]: 100 nM | apparent KD of MS2 coat protein [1]: 109 nM | apparent KD of MS2 coat protein [3]: 174 nM

AAUUUACAUGAGGAUCACCCAUGUCAGGAUAUGGUUUUAUUUUUUUCUUUUCUUGAUUCCAGAAGGGACAGUUA (puzzle: Exclusion 1)
apparent KD of MS2 coat protein [1]: 81.6 nM

AAUUUACAUGAGGAUCACCCAUGUGAGGAUAUAUAAAUAUAUAUGUUAUUGUAUGUUUGUAGAAGGCGCGUGAU [JR_Exc1_Sub031] (Eterna round: R97, puzzle: Exclusion 1)
apparent KD of MS2 coat protein (input ligand: FMN 200 uM): 145 nM | apparent KD of MS2 coat protein (input ligand: none): 83.3 nM

AAUUUACAUGAGGAUCACCCAUGUGAGGAUAUAUGUAAACAAUUUUUAUUCAUCAAACAUAGAAGGCGCGUGAU [JR_Exc1_Sub044] (Eterna round: R97, puzzle: Exclusion 1)
apparent KD of MS2 coat protein (input ligand: FMN 200 uM): 41.3 nM | apparent KD of MS2 coat protein (input ligand: none): 42.6 nM

AAUUUACAUGAGGAUCACCCAUGUGAGGAUAUAUGUUUUAAUUUUUUUUUUUUUUUACAUAGAAGGCGCGUGAU [JR_Exc1_Sub046] (Eterna round: R97, puzzle: Exclusion 1)
apparent KD of MS2 coat protein (input ligand: FMN 200 uM): 51.7 nM | apparent KD of MS2 coat protein (input ligand: none): 58.5 nM

AAUUUACAUGAGGAUCACCCAUGUGAGGAUAUUGUAUAUUUAUAGAAAUGUGGGUGUGCAAGAAGGCACAUAGG [Alacar 2] (Eterna round: R97, puzzle: Exclusion 1)
apparent KD of MS2 coat protein (input ligand: FMN 200 uM): 134 nM | apparent KD of MS2 coat protein (input ligand: none): 63.6 nM

AAUUUUUGAUACCUUUAAUACAUGAGGAUCACCCAUGUUAUCGAGGAUAUGUAGAUGAAAUGAGAACAGAAGGCGAAGUAAGAG [JR_ExcNG3_Sub099] (Eterna round: R96, puzzle: Exclusion NG 3)
apparent KD of MS2 coat protein (input ligand: FMN 200 uM): 41.5 nM | apparent KD of MS2 coat protein [4]: 3.24 nM | apparent KD of MS2 coat protein (input ligand: none): 15.6 nM

ACAAAGUGAGGAUAUACUAAAACCCUCAUACCCAAAAGGGAACAUGAGGAUCACCCAUGUAGAAGGCACAUAAU [Esmainleor] (puzzle: Exclusion 2)
apparent KD of MS2 coat protein [2]: 549 nM | apparent KD of MS2 coat protein [1]: 100 nM | apparent KD of MS2 coat protein [3]: 92.3 nM

ACAACCAGAGGAUAUGCGCAUAGAUCAGACUUUGUUUCUGAACAUGAGGAUCACCCAUGUAGAAGGCUGUAACC [Ex2 #79] (Eterna round: R97, puzzle: Exclusion 2)
apparent KD of MS2 coat protein (input ligand: FMN 200 uM): 27.7 nM | apparent KD of MS2 coat protein (input ligand: none): 28.7 nM

ACAAGACAUGAGGAUCACCCAUGUGGUCGGAUGUCAAAGACCGAGGAUAUCAGCGACUGCGCCGCUGAGAAGGCGGAUGGUGCU [Telaed] (Eterna round: R96, puzzle: Exclusion NG 3)
apparent KD of MS2 coat protein (input ligand: FMN 200 uM): 1260 nM | apparent KD of MS2 coat protein [4]: 476 nM | apparent KD of MS2 coat protein (input ligand: none): 652 nM

ACAAGAGCGGAAGGAUAUUUUACAUGAGGAUCACCCAUGUAAUAAAUGAGGAUCACGGAUGUAGUAAAGAAGGUCCGGAUAAGA [Ostracism 2 - Jieux - Exclusion NG 2] (Eterna round: R96, puzzle: Exclusion NG 2)
apparent KD of MS2 coat protein [4]: 18.4 nM

ACAAGCUUUUAGAUUCUUAACAUGAGGAUCACCCAUGUGCUCGUCUUAUUGGGCCCGGGCCCGCCGGGCCCGGGCCC (Eterna round: R97, puzzle: Sensor, turn-off variant 1)
apparent KD of MS2 coat protein (input ligand: FMN 200 uM): 39.2 nM | apparent KD of MS2 coat protein (input ligand: none): 42.6 nM

ACAAGCUUUUGGAUUUUCAACAUGAGGAUCACCCAUGUUCGUCUUAUGCGAGUGCGAGUGCGGUGUACUCGUAUUAG [JL TOV1 3.86 sellena mod] (Eterna round: R97, puzzle: Sensor, turn-off variant 1)
apparent KD of MS2 coat protein (input ligand: FMN 200 uM): 25.3 nM | apparent KD of MS2 coat protein (input ligand: none): 24.4 nM

ACAAGCUUUUUGCAACAAGCAUUAAACUCUCAGAUCGUAACAUGAGGAUCACCCAUGUAAGUUUUAUGACGUCUUAU [JR_SV3TOV2_Sub095] (puzzle: Sensor v3, turn-off variant 2)
apparent KD of MS2 coat protein [2]: 20.8 nM | apparent KD of MS2 coat protein [1]: 18.1 nM | apparent KD of MS2 coat protein [3]: 22.9 nM

ACACAAAGCUAGGAUAUCCAGGCAUCUUCGGCCGGAGAAGGAGCCACAUGAGGAUCACCCAUGUGGUGAUCCUG [eternacac ex6r4 sub5] (Eterna round: R97, puzzle: Exclusion 6)
apparent KD of MS2 coat protein (input ligand: FMN 200 uM): 70.9 nM | apparent KD of MS2 coat protein (input ligand: none): 50.6 nM

ACACAGCAAGGAUAUACAUGAGGAUCACCCAUGUGGCGGCCGUUACGGUAGGACUAGUGUAGAAGGUGCAUUGG [EX3 #33] (Eterna round: R97, puzzle: Exclusion 3)
apparent KD of MS2 coat protein (input ligand: FMN 200 uM): 167 nM | apparent KD of MS2 coat protein (input ligand: none): 210 nM

ACACUGCGAGGAUAUACAUGAGGAUCACCCAUGUAUCGGUAGACAAGGUUAAUUUAAGGUAGAAGGCGCGUAUU [JR_Ex3_Sub008] (Eterna round: R97, puzzle: Exclusion 3)
apparent KD of MS2 coat protein (input ligand: FMN 200 uM): 36.9 nM | apparent KD of MS2 coat protein (input ligand: none): 29.1 nM

ACAGAGUCAGGAUAUCGCCGUGGCAGUCUCAACCAGCGGAACGAGAAGGGACAUGAGGAUCACCCAUGUCUGUU [Eternabot (Original) Solution 36] (Eterna round: R97, puzzle: Exclusion 4)
apparent KD of MS2 coat protein (input ligand: FMN 200 uM): 20.7 nM | apparent KD of MS2 coat protein (input ligand: none): 18.6 nM

ACAUCACAGCUAGGAUAUAGAUGACAUGAGGAUCACCCAUGUUAUCCCAUGUUGACGGAAACCGACUAGAAGGAGCUACAGAUG [Ex NG2 #7] (Eterna round: R96, puzzle: Exclusion NG 2)
apparent KD of MS2 coat protein (input ligand: FMN 200 uM): 129 nM | apparent KD of MS2 coat protein [4]: 41.8 nM | apparent KD of MS2 coat protein (input ligand: none): 47.9 nM

ACAUGAGGAUCACCCAUGUCAGGUGGGUCCUCUCCGGCUGUUGAGGAUAUAGUCCGGUAUCCGCGCUAGAAGGUGAGGGCCGGC [Aenatbe mod 17] (Eterna round: R96, puzzle: Exclusion NG 3)
apparent KD of MS2 coat protein (input ligand: FMN 200 uM): 29.8 nM | apparent KD of MS2 coat protein [4]: 31.1 nM | apparent KD of MS2 coat protein (input ligand: none): 33.7 nM

ACAUGAGGAUCACCCAUGUCCGUCUGAUCUGUCUCGGCUGUCGAGGAUAUAGCCCGGUAUCCGCGCUAGAAGGUGGGAGUCGGA [Aenatbe mod 100] (Eterna round: R96, puzzle: Exclusion NG 3)
apparent KD of MS2 coat protein (input ligand: FMN 200 uM): 34.9 nM | apparent KD of MS2 coat protein [4]: 33.4 nM | apparent KD of MS2 coat protein (input ligand: none): 42 nM

ACAUGAGGAUCACCCAUGUCUGGCUGGUCCGUCUCGGCUGUCGAGGAUAUGGCUCGGUGUCCGCGCUAGAAGGCGGGAGCUGGU [Aenatbe mod 79] (Eterna round: R96, puzzle: Exclusion NG 3)
apparent KD of MS2 coat protein (input ligand: FMN 200 uM): 195 nM | apparent KD of MS2 coat protein [4]: 45 nM | apparent KD of MS2 coat protein (input ligand: none): 77.5 nM

ACAUGAGGAUCACCCAUGUGAAAAGAAUGGCUGACACAGAGUUAGGAUAUGCGUGCAUAUCUAACGCAGAAGGGACAUGACUGG [Deportation 82 - Jieux - Exclusion NG 3] (Eterna round: R96, puzzle: Exclusion NG 3)
apparent KD of MS2 coat protein (input ligand: FMN 200 uM): 33.7 nM | apparent KD of MS2 coat protein [4]: 33.9 nM | apparent KD of MS2 coat protein (input ligand: none): 30.2 nM
